# From patent US20250388683A1 (VETOQUINOL, published 2025)
# Like-named read-outs stand apart in the source and are kept apart here.
# What was measured:
# Experiment in all cases: cell-based or functional assay
# [1] = biological target: T1, canine IL-31RA expressed on HEK-Blue STAT3 canine IL-31R reporter cells (with canine OSMR) (canine)
# [2] = biological target: T1, canine IL-31RA expressed on HEK-Blue …; remark: listed apart in the source
# [3] = biological target: T1, canine IL-31RA expressed on HEK-Blue …; remark: listed apart in the source
# [4] = biological target: T1, canine IL-31RA expressed on HEK-Blue …; remark: listed apart in the source
# [5] = biological target: T1, canine IL-31RA expressed on HEK-Blue …; remark: listed apart in the source
# [6] = biological target: T1, canine IL-31RA expressed on HEK-Blue …; remark: listed apart in the source
# [7] = biological target: T1, canine IL-31RA expressed on HEK-Blue …; remark: listed apart in the source
# [8] = biological target: T1, canine IL-31RA expressed on HEK-Blue …; remark: listed apart in the source
binder,measurement,setting,value
scFv-Fc-VTQ2202 (scFv-VTQ2202-HLλcap-GS18-MOUSE IgG2A-LALAPG-Fc) (Fc fusion) scFv: EVQLQQSGAELVKPGASVKLSCTASGFNIKSSFIHWLKQRPEQGLEWIGRIDPAFGATEYNPAFQGKVTITADTSSNTAYLQLSSLTSEDTAVYYCARYHYAASHFDAWGQGTTLTVSSGSTSGGGSGGGSGGGGSSRIVMNQTPKFLPISAGDRVIITCKSSQSVTNDLTWYQQKPGQSPKVLIHYASQRYTGVPDRFTGSGYGTDFTFTISTVQAEDLAVYFCQQDYASPFTFGSGTKLTVLGPRGPTIKPCPPCKCPAPNAAGGPSVFIFPPKIKDVLMISLSPIVTCVVVDVSEDDPDVQISWFVNNVEVHTAQTQTHREDYNSTLRVVSALPIQHQDWMSGKEFKCKVNNKDLGAPIERTISKPKGSVRAPQVYVLPPPEEEMTKKQVTLTCMVTDFMPEDIYVEWTNNGKTELNYKNTEPVLDSDGSYFMYSKLRVEKKNWVERNSYSCSVVHEGLHNHHTTKSFSRTPGK,"IC50 (read off the curve); STAT3-SEAP reporter, canine IL-31 stimulation",[1],~0.8 nM
same,IC50 ratio (IC50 candidate/IC50 VTQ2101),[2],1 ratio
"monoclonal anti-cIL-31RA antibody 28F12 (antibody, V domains shown) VH: EVQLVESDGGLAQPGRSLKLSCAASGFTFSDYYMAWVRQAPTKGLEWVATISYDGSSTYYRDSVRGRFTISRDNAKSTLYLQMDSLRSEDTATYYCARGPLTDWAPNWFAYWGQGTLVTVSS VL: DIQMTQSPASLSASLGETVTIQCQTSEDIYSGLAWYQQKPGKSPQFLIYGASRLEDGVPSRFSGSGSGTQYSLKISSMQTEDEGVYFCQQGLKYPNTFGAGTKLELK","IC50 (read off the curve); STAT3-SEAP reporter, canine IL-31 stimulation",[3],~0.7 nM
same,IC50 ratio (IC50 candidate/IC50 VTQ2101),[4],5.6 ratio
"8D3-VH-H/8D3-VL-Ev2 caninized antibody (antibody, V domains shown) VH: EVTLQESGPGLVKPSQTLSLTCVASGFSIKDSFIHWLRQRPGRGLEWIGRIDPAQGATEYDANFQGRISITADTAKNQASLQLSSMTTEDTAVYYCARYYYGASHFDAWGQGTLVTVSS VL: RIVMTQSPGSLAGSVGESVSINCKSSQSVTNDVTWYQQKPGEAPKVLIHYASQRYSGVPARFSGSGYGTDFTLTINNLQAEDVGDYFCQQDYASPFTFGQGTKLEIK","Mean IC50 (nM) (n = 3), HEK-Blue cell-based SEAP assay",[5],0.59 nM
"8D3-VH-Lv2/8D3-VL-G caninized antibody (antibody, V domains shown) VH: EVTLQESGPGLVKPSQTLSLTCVASGFSIKSSFIHWLRQRPGRGLEWIGRIDPLQGATEYNPVFQGRLSITADTAKNQVSLQLSSMTTEDTAVYYCARYHYAQSHFDAWGQGTLVTVSS VL: RIVMTQSPGSLAGSVGESVSINCKSSQSVTNDLTWYQQKPGEAPKVLIHYASQRYPGVPARFSGSGYGTDFTLTINNLQAEDVGDYFCQQDYASPFTFGQGTKLEIK","Mean IC50 (nM) (n = 3), HEK-Blue cell-based SEAP assay",[5],0.41 nM
"8D3-VH-L/8D3-VL-Ev2 caninized antibody (antibody, V domains shown) VH: EVTLQESGPGLVKPSQTLSLTCVASGFSIKSSFIHWLRQRPGRGLEWIGRIDPAFGATEYNPAFQGRFSITADTAKNQASLQLSSMTTEDSAVYYCARYHYAASHFDAWGQGTLVTVSS VL: RIVMTQSPGSLAGSVGESVSINCKSSQSVTNDVTWYQQKPGEAPKVLIHYASQRYSGVPARFSGSGYGTDFTLTINNLQAEDVGDYFCQQDYASPFTFGQGTKLEIK","Mean IC50 (nM) (n = 3), HEK-Blue cell-based SEAP assay",[5],0.41 nM
"8D3-clone7v2-VH/8D3-clone 7-VL caninized antibody (antibody, V domains shown) VH: EVTLQESGPGLVKPSQTLSLTCVASGFSIKSSFIHWLRQRPGRGLEWIGRIDPLQGGTEYNPVFQGRISITADTTKNQVSLQLSSMTTEDTAVYYCARYYYAQSHFDAWGQGTLVTVSS VL: RIVMTQSPGSLAGSAGESVSINCKSSQSVTNDLTWYQQKPGEAPKVLIHYASQRYTGVPARFSGSGYGTDFTLTINNLQAEDVGVYFCQQDYSSPFTFGQGTKLEIK","Mean IC50 (nM) (n = 3), HEK-Blue cell-based SEAP assay",[5],0.44 nM
"8D3-VH-518/8D3-VL-Ev2 caninized antibody (antibody, V domains shown) VH: VTLQESGPGLVKPSQTLSLTCVASGFSIKDSFIHWLRQRPGRGLEWIGYIDPLQGNTEYDPVFQGRLSITADTAKNQVSLQLSSMTTEDTAVYYCARYYYARSHFDAWGQGTLVTVSS VL: RIVMTQSPGSLAGSVGESVSINCKSSQSVTNDVTWYQQKPGEAPKVLIHYASQRYSGVPARFSGSGYGTDFTLTINNLQAEDVGDYFCQQDYASPFTFGQGTKLEIK","Mean IC50 (nM) (n = 3), HEK-Blue cell-based SEAP assay",[5],0.57 nM
"8D3-VH-N/8D3-VL-E caninized antibody (antibody, V domains shown) VH: EVTLQESGPGLVKPSQTLSLTCVASGFSIKSSFIHWLRQRPGRGLEWIGYIDPLQGGTEYNPVFQGRISITADTAKNQVSLQLSSMTTEDTAVYYCARYYYAQSHFDAWGQGTLVTVSS VL: RIVMTQSPGSLAVSVGESVSINCKSSQSVTNDVTWYQWKPGEAPKVLITYASIRYSGVPARFSGSGYGTDFTLTINNLQAEDVGDYFCQQDYASPFTFGQGTKLEIK","Mean IC50 (nM) (n = 3), HEK-Blue cell-based SEAP assay",[5],0.44 nM
"8D3-VH-518/8D3-VL-A caninized antibody (antibody, V domains shown) VH: VTLQESGPGLVKPSQTLSLTCVASGFSIKDSFIHWLRQRPGRGLEWIGYIDPLQGNTEYDPVFQGRLSITADTAKNQVSLQLSSMTTEDTAVYYCARYYYARSHFDAWGQGTLVTVSS VL: RIVMTQSPGSLAGSAGESVSINCKASQSVTNDVTWYQQKPGERPKVLIHYASNRYTGVPARFSGSGSGTDFTFTINNLQAEDVGDYFCQQDYSSPFTFGQGTKLEIK","Mean IC50 (nM) (n = 3), HEK-Blue cell-based SEAP assay",[5],0.54 nM
"8D3-VH-L/8D3-VL-G caninized antibody (antibody, V domains shown) VH: EVTLQESGPGLVKPSQTLSLTCVASGFSIKSSFIHWLRQRPGRGLEWIGRIDPAFGATEYNPAFQGRFSITADTAKNQASLQLSSMTTEDSAVYYCARYHYAASHFDAWGQGTLVTVSS VL: RIVMTQSPGSLAGSVGESVSINCKSSQSVTNDLTWYQQKPGEAPKVLIHYASQRYPGVPARFSGSGYGTDFTLTINNLQAEDVGDYFCQQDYASPFTFGQGTKLEIK","Mean IC50 (nM) (n = 3), HEK-Blue cell-based SEAP assay",[5],0.44 nM
"8D3-VH-Lv2/8D3-VL-Ev2 caninized antibody (antibody, V domains shown) VH: EVTLQESGPGLVKPSQTLSLTCVASGFSIKSSFIHWLRQRPGRGLEWIGRIDPLQGATEYNPVFQGRLSITADTAKNQVSLQLSSMTTEDTAVYYCARYHYAQSHFDAWGQGTLVTVSS VL: RIVMTQSPGSLAGSVGESVSINCKSSQSVTNDVTWYQQKPGEAPKVLIHYASQRYSGVPARFSGSGYGTDFTLTINNLQAEDVGDYFCQQDYASPFTFGQGTKLEIK","Mean IC50 (nM) (n = 3), HEK-Blue cell-based SEAP assay",[5],0.38 nM
"8D3-VH-N/8D3-VL-Ev2 caninized antibody (antibody, V domains shown) VH: EVTLQESGPGLVKPSQTLSLTCVASGFSIKSSFIHWLRQRPGRGLEWIGYIDPLQGGTEYNPVFQGRISITADTAKNQVSLQLSSMTTEDTAVYYCARYYYAQSHFDAWGQGTLVTVSS VL: RIVMTQSPGSLAGSVGESVSINCKSSQSVTNDVTWYQQKPGEAPKVLIHYASQRYSGVPARFSGSGYGTDFTLTINNLQAEDVGDYFCQQDYASPFTFGQGTKLEIK","Mean IC50 (nM) (n = 3), HEK-Blue cell-based SEAP assay",[5],0.54 nM
"8D3-VH-Lv2/8D3-VL-H caninized antibody (antibody, V domains shown) VH: EVTLQESGPGLVKPSQTLSLTCVASGFSIKSSFIHWLRQRPGRGLEWIGRIDPLQGATEYNPVFQGRLSITADTAKNQVSLQLSSMTTEDTAVYYCARYHYAQSHFDAWGQGTLVTVSS VL: RIVMTQSPGSLAGSVGESVSINCKSSQSVTNDLTWYQQKPGEAPKVLITYASQRYTGVPARFSGSGYGTDFTLTINNLQAEDVGDYFCQQDYASPFTFGQGTKLEIK","Mean IC50 (nM) (n = 3), HEK-Blue cell-based SEAP assay",[5],0.54 nM
"8D3-VH-Lv2/8D3-VL-E caninized antibody (antibody, V domains shown) VH: EVTLQESGPGLVKPSQTLSLTCVASGFSIKSSFIHWLRQRPGRGLEWIGRIDPLQGATEYNPVFQGRLSITADTAKNQVSLQLSSMTTEDTAVYYCARYHYAQSHFDAWGQGTLVTVSS VL: RIVMTQSPGSLAVSVGESVSINCKSSQSVTNDVTWYQWKPGEAPKVLITYASIRYSGVPARFSGSGYGTDFTLTINNLQAEDVGDYFCQQDYASPFTFGQGTKLEIK","Mean IC50 (nM) (n = 3), HEK-Blue cell-based SEAP assay",[5],0.49 nM
"8D3-VH-518H/8D3-VL-A caninized antibody (antibody, V domains shown) VH: EVTLQESGPGLVKPSQTLSLTCVASGFSIKSSFIHWLRQRPGRGLEWIGYIDPLQGGTEYNPVFQGRLSITADTAKNQVSLQLSSMTTEDTAVYYCARYHYATSHFDAWGQGTLVTVSS VL: RIVMTQSPGSLAGSAGESVSINCKASQSVTNDVTWYQQKPGERPKVLIHYASNRYTGVPARFSGSGSGTDFTFTINNLQAEDVGDYFCQQDYSSPFTFGQGTKLEIK","Mean IC50 (nM) (n = 3), HEK-Blue cell-based SEAP assay",[5],0.48 nM
scFv-VTQ2101-LH-Fc (scFv-VTQ2101-LH-GS18-Canine IgG2B-LALAPG-Fc) (Fc fusion) scFv: RIVMTQSPGSLAGSVGESVSINCKSSQSVTNDLTWYQQKPGEAPKVLITYASQRYTGVPARFSGSGYGTDFTLTINNLQAEDVGDYFCQQDYASPFTFGQGTKLEIKGSTSGGGSGGGSGGGGSSEVTLQESGPGLVKPSQTLSLTCVASGFSIKSSFIHWLRQRPGRGLEWIGRIDPAFGATEYNPAFQGRFSITADTAKNQASLQLSSMTTEDSAVYYCARYHYAASHFDAWGQGTLVTVSSPKRENGRVPRPPDCPKCPAPEAAGGPSVFIFPPKPKDTLLIARTPEVTCVVVDLDPEDPEVQISWFVDGKQMQTAKTQPREEQFNGTYRVVSVLPIGHQDWLKGKQFTCKVNNKALGSPIERTISKARGQAHQPSVYVLPPSREELSKNTVSLTCLIKDFFPPDIDVEWQSNGQQEPESKYRTTPPQLDEDGSYFLYSKLSVDKSRWQRGDTFICAVMHEALHNHYTQESLSHSPG,"IC50 (read off the curve); STAT3-SEAP reporter, canine IL-31 stimulation",[6],1 to 10 nM
same,IC50 ratio (IC50 candidate/IC50 VTQ2101),[7],2.2 ratio
scFv-Fc-VTQ2201 (scFv-VTQ2201-HLλcap-GS18-Mouse IgG2A-LALAPG-Fc) (Fc fusion) scFv: EVQLQQSGAELVKPGASVKLSCTASGFNIKDSFIHWLKQRPEQGLEWIGRIDPANGNTEYDPNFQGKVTITADTSSNTAYLQLSSLTSEDTAVYYCARYYYGNSHFDAWGQGTTLTVSSGSTSGGGSGGGSGGGGSSRIVMNQTPKFLPISAGDRVIITCKASQSVTNDVTWYQQKPGQSPKVLIHYASNRYTGVPDRFTGSGYGTDFTFTISTVQAEDLAVYFCQQDYSSPFTFGSGTKLTVLGPRGPTIKPCPPCKCPAPNAAGGPSVFIFPPKIKDVLMISLSPIVTCVVVDVSEDDPDVQISWFVNNVEVHTAQTQTHREDYNSTLRVVSALPIQHQDWMSGKEFKCKVNNKDLGAPIERTISKPKGSVRAPQVYVLPPPEEEMTKKQVTLTCMVTDFMPEDIYVEWTNNGKTELNYKNTEPVLDSDGSYFMYSKLRVEKKNWVERNSYSCSVVHEGLHNHHTTKSFSRTPGK,IC50 ratio (IC50 candidate/IC50 VTQ2101),[2],1 ratio
same,"IC50 (read off the curve); STAT3-SEAP reporter, canine IL-31 stimulation",[8],~1 nM
